The values that follow come from article PMC4155161 (Structure(London, England:1993), 2014).

One series has as its target p53 (Danio rerio) (UniProt P79734). The note with it: cited from earlier work.
Series [1] concerns the molecule itself. The series is described as follows: crystal structure; DRp53(302-346), two crystal forms (C222(1), 1.97 A; P2(1), 2.2 A), grown at 20 C with zinc acetate and polyethylene glycol.
Series [2] concerns the molecule itself. The series is described as follows: SEC-MALS; DRp53(302-345) at 185, 46 and 9 uM (monomer concentration at the peak); room temperature, 50 mM Tris pH 7.5, 150 mM NaCl, Superdex 75 10/300. (In general: SEC sorts molecules by how far they enter the pores of the column.)
Series [3] concerns the molecule itself. The series is described as follows: SEC-MALS; DRp53(302-331) at high concentrations (170 and 870 uM monomer at the peak); room temperature, 50 mM Tris pH 7.5, 150 mM NaCl, Superdex 75 10/300.

A word on the Kd: it is the constant that tells how readily two partners part at equilibrium. For p53 (from UniProt P79734), the Kd with p53 (Danio rerio) was 3.6 nM.

B1: zebrafish p53 tetramerization domain, DRp53(302-346) (domain or fragment, zebrafish (Danio rerio), UniProt G1K2L5 302-346, looked up)
chain: EEIFTLQVRGRERYEILKKLNDSLELSDVVPASDAEKYRQKFMTK
notes: numbering on UniProt/TrEMBL entry G1K2L5 (length of 374 amino acids); Crystallised construct; same vector and cleavage here; also called full-length tetramerization domain; long variant; not shown: His6, N-terminal, cleaved; lipoyl domain of B. stearothermophilus dihydrolipoamide acetyltransferase, N-terminal, cleaved
Turning to B1, the binding result in series [1] is recorded as “binds”.

B2: zebrafish p53 tetramerization domain, residues 302-345, DRp53(302-345) (domain or fragment, zebrafish (Danio rerio), UniProt G1K2L5 302-345, looked up)
chain: EEIFTLQVRGRERYEILKKLNDSLELSDVVPASDAEKYRQKFMT
notes: numbering on UniProt/TrEMBL entry G1K2L5 (length of 374 amino acids); Used for SEC-MALS; the two may be the same construct; not shown: His6, N-terminal, cleaved; lipoyl domain of B. stearothermophilus dihydrolipoamide acetyltransferase, N-terminal, cleaved; GGS, N-terminal, kept
One may read the stoichiometry N as a count of units in the complex or per binding partner. On to B2, for which the “stoichiometry N” value in series [2] stood at 4.

B3: zebrafish p53 tetramerization domain deletion variant lacking helix H2, DRp53(302-331) (domain or fragment, zebrafish (Danio rerio), UniProt G1K2L5 302-331, looked up)
chain: EEIFTLQVRGRERYEILKKLNDSLELSDVV
notes: numbering on UniProt/TrEMBL entry G1K2L5 (length of 374 amino acids); same vector and cleavage here; also called truncated domain; short variant; not shown: His6, N-terminal, cleaved; lipoyl domain of B. stearothermophilus dihydrolipoamide acetyltransferase, N-terminal, cleaved
For the molecule B3, the “stoichiometry N” value in series [3] was 4.
